Assay results taken from patent US20100015637A1 (AbbVie / Abbott, published 2010).
Values belong to the molecule of their own block, whether it stands above or below them.

Assays:
[1] = biological target: human PlGF-1 comprising amino acids 1-137 produced in human embryonic kidney cells (human) (UniProt P49763); assay: Format 2 …, capture MAb264, detection Pb264; sFlt-1 9200 pmol/L (ratio 300)
[2] = biological target: human PlGF-1 comprising amino acids 1-137 produced in human embryonic kidney cells (human) (UniProt P49763); assay: Format 1 …, capture 2-826-335, detection 1-255-713; sFlt-1 77 pmol/L (ratio 2.5)
[3] = biological target: human PlGF-1 comprising amino acids 1-137 produced in human embryonic kidney cells (human) (UniProt P49763); assay: Format 1 …, capture 2-826-335, detection 1-255-713; sFlt-1 9200 pmol/L (ratio 300)
[4] = biological target: human PlGF-1 comprising amino acids 1-137 produced in human embryonic kidney cells (human) (UniProt P49763); assay: Format 3 Quantikine ELISA, capture MAb264, detection Pb264; sFlt-1 613 pmol/L (ratio 20)
[5] = biological target: human PlGF-1 comprising amino acids 1-137 produced in human embryonic kidney cells (human) (UniProt P49763); assay: Format 3 Quantikine ELISA, capture MAb264, detection Pb264; sFlt-1 3067 pmol/L (ratio 100)
[6] = biological target: human PlGF-1 comprising amino acids 1-137 produced in human embryonic kidney cells (human) (UniProt P49763); assay: Format 3 Quantikine ELISA, capture MAb264, detection Pb264; sFlt-1 4600 pmol/L (ratio 150)
[7] = biological target: recombinant human PlGF-1 (comprising amino acids 1-131) expressed in E. coli (R&D Systems) (human) (UniProt P49763); assay: … sandwich, capture MAb826, detection pAb264; antigen 60 pg/mL
[8] = biological target: recombinant human PlGF-1 (comprising amino acids 1-131) expressed in E. coli (R&D Systems) (human) (UniProt P49763); assay: … sandwich, capture MAb826, detection pAb264; antigen 250 pg/mL
[9] = biological target: T1, CHO human PlGF-1 fragment (comprising amino acids 17-131; ATCC PTA-8540) (human, UniProt P49763 35-221); assay: … sandwich, capture MAb255, detection MAb826; antigen 250 pg/mL
T1 sequence: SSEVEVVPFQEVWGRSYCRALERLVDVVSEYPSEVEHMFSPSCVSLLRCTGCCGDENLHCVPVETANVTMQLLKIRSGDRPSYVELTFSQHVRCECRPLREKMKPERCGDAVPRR
Method in brief: (§1)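 Human PlGF-1 antigen preparations, including CHO cell-expressed recombinant forms, spanned 0 to 1500 pg/mL in a sandwich immunoassay. A monoclonal anti-human PlGF-1 antibody, immobilized on magnetic microparticles through passive coating and EDAC cross-linking, captured the antigen, and an acridinium ester-labeled monoclonal anti-human PlGF-1 antibody detected it. Chemiluminescent relative light units (RLU) were recorded for every antigen level.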

[10] = biological target: T2, human PlGF-1 fragment (comprising amino acids 17-131) produced in human embryonic kidney cells (human, UniProt P49763 35-221); assay: as above
T2 sequence: T1 sequence
Method in brief: as §1

[11] = biological target: T1, CHO human PlGF-1 fragment (comprising …); assay: … sandwich, capture MAb255, detection pAb264; antigen 1500 pg/mL
[12] = biological target: T3, CHO human PlGF-1 comprising amino acids 1-137 (human PlGF-1-His (1-131), CHO 6305) (human, UniProt P49763 19-221, N-glycans at N21 (completely glycosylated) and N89 (partially glycosylated)); assay: as above
T3 construct: Mature human PlGF-1 with 6xHis tag (137 amino acids); also called CHO (1-137)
T3 sequence: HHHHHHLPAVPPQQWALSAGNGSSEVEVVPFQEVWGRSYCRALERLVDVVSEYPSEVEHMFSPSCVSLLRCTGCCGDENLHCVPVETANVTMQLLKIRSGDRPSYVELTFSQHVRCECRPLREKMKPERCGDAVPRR

[13] = biological target: T4, human PlGF-1 comprising amino acids 1-137 produced in human embryonic kidney cells (human, UniProt P49763 19-221); assay: as above
T4 construct: Mature human PlGF-1 with 6xHis tag; also called HEK (1-137); full length HEK human PlGF-1 (1-137)
T4 sequence: T3 sequence

[14] = biological target: T2, human PlGF-1 fragment (comprising amino …); assay: as above
[15] = biological target: T1, CHO human PlGF-1 fragment (comprising …); assay: … sandwich, capture MAb255, detection pAb264; antigen 0 pg/mL (blank)
[16] = biological target: T3, CHO human PlGF-1 comprising amino acids …; assay: as above
[17] = biological target: T4, human PlGF-1 comprising amino acids …; assay: as above
[18] = biological target: T2, human PlGF-1 fragment (comprising amino …); assay: as above

% Inhibition [1]: 97.5%
PlGF-1 Measured [1]: 20 pg/mL
% Inhibition [2]: 41.9%
PlGF-1 Measured [2]: 594 pg/mL
% Inhibition [3]: 95.9%
PlGF-1 Measured [3]: 42.1 pg/mL
% Inhibition [4]: 40.4%
PlGF-1 Measured [4]: 515 pg/mL
% Inhibition [5]: 80.9%
PlGF-1 Measured [5]: 166 pg/mL
% Inhibition [6]: 81.6%
PlGF-1 Measured [6]: 159 pg/mL
Molecule: native sFlt-1, isolated from human placental tissue (from UniProt P17948 27-687) (receptor)

RLU [7]: 65500 RLU
RLU [8]: 231000 RLU
B1: monoclonal antibody 2-826-335 (produced by murine hybridoma cell line 2-826-335, ATCC PTA-8539) (antibody, mouse IgG1, V domains shown)
VH: QVQLKQSGPGLVQPSQSLSITCTVSGFSLTTYGIHWVRQSPGKGLEWLGVMWSGGDTDYDAAFISRLSISKDNSKSQVFFKMNSLQANDTGIYYCARYRFYGMDYWGQGTSVTVSS
VL: AIQMTQSSSSFSVSLGDRVTITCKASEDIYNRFAWYQQKPGNAPRLLISGAASLEAGVPSRFSGSGSGQDYTLSITSLQTEDVATYYCQQYWSTPWTFGGGTKLEIKR
notes: also called MAb826

RLU [9]: 144000 RLU
RLU [10]: 207000 RLU
RLU [11]: 1.25e+06 RLU
RLU [12]: 1.05e+06 RLU
RLU [13]: 2.14e+06 RLU
RLU [14]: 1.62e+06 RLU
RLU [15]: 14400 RLU
RLU [16]: 14500 RLU
RLU [17]: 14200 RLU
RLU [18]: 14200 RLU
B2: monoclonal antibody 1-255-713 (produced by murine hybridoma cell line 1-255-713, ATCC PTA-8536) (antibody, mouse IgG2a, V domains shown)
VH: QVHLQQSGAELMKPGASVKISCKATGYTFSSYWIEWVKQRPGHGLEWIGEILPGSVSNNFNEKFKDKATLTADPSSNTAYIQVSSLTSEDSAVYYCARSTGFYYGGNYFDHWGQGTTLAVSS
VL: DVVMTQTPLSLPVSPGDQASISCRSSQSLVHSNGHTYLHWYLQKPGQSPKLLIYKVSNRFSGVPDRVSGSGSGTDFTLKISRVEAEDLGVYFCSQSTHVPPTFGGGTKLEIKR
notes: also called MAb255
